Assay results from patent US20170362325A1.

Target: CD18 (Integrin beta-2) (human) (UniProt P05107)
Assay: cell-based or functional assay

UniProt P05107, sequence (P05107 23-769): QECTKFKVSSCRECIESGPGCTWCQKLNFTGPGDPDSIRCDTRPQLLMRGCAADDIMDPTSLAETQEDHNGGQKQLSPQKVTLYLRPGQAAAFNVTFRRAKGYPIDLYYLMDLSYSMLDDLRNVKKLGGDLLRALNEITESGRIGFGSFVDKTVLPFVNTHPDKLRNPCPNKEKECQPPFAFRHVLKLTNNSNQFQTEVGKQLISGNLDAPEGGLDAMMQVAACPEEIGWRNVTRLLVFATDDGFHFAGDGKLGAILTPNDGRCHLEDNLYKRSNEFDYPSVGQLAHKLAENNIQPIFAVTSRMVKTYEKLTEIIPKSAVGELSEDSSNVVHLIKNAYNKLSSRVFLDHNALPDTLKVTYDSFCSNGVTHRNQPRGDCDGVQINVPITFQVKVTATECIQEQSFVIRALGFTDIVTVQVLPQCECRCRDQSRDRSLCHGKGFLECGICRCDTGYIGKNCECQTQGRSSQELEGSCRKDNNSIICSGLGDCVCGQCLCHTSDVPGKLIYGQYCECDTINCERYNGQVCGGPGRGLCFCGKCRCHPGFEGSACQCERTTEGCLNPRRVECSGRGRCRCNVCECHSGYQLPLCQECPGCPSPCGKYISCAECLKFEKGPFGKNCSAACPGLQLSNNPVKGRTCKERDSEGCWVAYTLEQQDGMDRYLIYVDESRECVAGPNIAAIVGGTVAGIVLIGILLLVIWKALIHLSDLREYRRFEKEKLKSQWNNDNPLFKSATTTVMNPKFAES

A 3H-thymidine uptake (cpm), PBMC + HUVEC + PSMA×CD3, off target activation (FIG. 3A; control about 30000 cpm) of less than 10000 cpm was found for anti-CD18 antibody molecule TS 1/18 in this work.
